Results from the supplement of paper PMC10266784.

B1: library; numbered along this chain (parent)
chain: MAAAAAAAAEQQSSNGPVKKSMREKAVERRSVNKEHNSNFKAGYIPIDEDRLHKTGLRGRKGNLAICVIILLFILAVINLIITLVIWAVIRIGPNGCDSMEFHESGLLRFKQVSDMGVIHPLYKSTVGGRRNENLVITGNNQPIVFQQGTTKLSVENNKTSITSDIGMQFFDPRTQNILFSTDYETHEFHLPSGVKSLNVQKASTERITSNATSDLNIKVDGRAIVRGNEGVFIMGKTIEFHMGGNMELKAENSIILNGSVMVSTTRLPSSSSGDQLGSGDWVRYKLCMCADGTLFKVQVTSQNMGCQISDNPCGNTH

Variants of: B1
Experiment: SGCB cell-surface expression functional score (HA stain, bin4 vs bin1, normalised to synonymous) (log10 ratio); higher = more cell-surface SGCB (functional)
Procedure, shortened: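 Human beta-sarcoglycan, tagged with HA and fused to YFP, was built into codon-saturation libraries and delivered by lentivirus at MOI <0.1 into HEK293 cells that stably express alpha-, gamma- and delta-sarcoglycan. After 72 hours, YFP-positive cells were sorted and grown for 5–7 days, then stained on ice with Alexa Fluor 647 anti-HA, fixed, sorted into four 5% intensity bins and amplicon-sequenced. Each variant's functional score is the log ratio of its frequency in the highest bin to that in the lowest bin, taken as the median across codons and transductions. Transductions were done in duplicate, and synonymous variants were scaled per section to mean 0, SD 0.5.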

| Variant | SGCB cell-surface expression functional score (log10) |
| --- | --- |
| MAAAAAAAAEQQSSNGPVKKSMREKAVERRSVNKEHNSNFKAGYIPIDEDRLHKTGLRGRKGNLAICVIILLFILAVINLIITLVIWAVIRIGPNGCDSMEFHESGLLRFKQVSDMGVIHPLYKSTVGGRRNENLVITGNNQPIVFQQGTTKLSVENNKTSITSDIGMQFFDPRTQNILFSTDYETHEFHLPSGVKSLNVQKASTERITSNATSDLNIKVDGRAIVRGNEGVFIMGPTIEFHMGGNMELKAENSIILNGSVMVSTTRLPSSSSGDQLGSGDWVRYKLCMCADGTLFKVQVTSQNMGCQISDNPCGNTH [K237P] | 0.32 |
| MAAAAAAAAEQQSSNGPVKKSMREKAVERRSVNKEHNSNFKAGYIPIDEDRLHKTGLRGRKGNLAICVIILLFILAVINLIITLVIWAVIRIGPNGCDSMEFHESGLLRFKQVSDMGVIHPLYKSTVGGRRNENLVITGNNQPIVFQQGTTKLSVENNKTSITSDIGMQFFDPRTQNILFSTDYETHEFHLPSGVKSLNVQKASTERITSNATSDLNIKVDGRAIVRGNEGVFIMGITIEFHMGGNMELKAENSIILNGSVMVSTTRLPSSSSGDQLGSGDWVRYKLCMCADGTLFKVQVTSQNMGCQISDNPCGNTH [K237I] | 0.24 |
| MAAAAAAAAEQQSSNGPVKKSMREKAVERRSVNKEHNSNFKAGYIPIDEDRLHKTGLRGRKGNLAICVIILLFILAVINLIITLVIWAVIRIGPNGCDSMEFHESGLLRFKQVSDMGVIHPLYKSTVGGRRNENLVITGNNQPIVFQQGTTKLSVENNKTSITSDIGMQFFDPRTQNILFSTDYETHEFHLPSGVKSLNVQKASTERITSNATSDLNIKVDGRAIVRGNEGVFIMGQTIEFHMGGNMELKAENSIILNGSVMVSTTRLPSSSSGDQLGSGDWVRYKLCMCADGTLFKVQVTSQNMGCQISDNPCGNTH [K237Q] | -0.79 |
| MAAAAAAAAEQQSSNGPVKKSMREKAVERRSVNKEHNSNFKAGYIPIDEDRLHKTGLRGRKGNLAICVIILLFILAVINLIITLVIWAVIRIGPNGCDSMEFHESGLLRFKQVSDMGVIHPLYKSTVGGRRNENLVITGNNQPIVFQQGTTKLSVENNKTSITSDIGMQFFDPRTQNILFSTDYETHEFHLPSGVKSLNVQKASTERITSNATSDLNIKVDGRAIVRGNEGVFIMGETIEFHMGGNMELKAENSIILNGSVMVSTTRLPSSSSGDQLGSGDWVRYKLCMCADGTLFKVQVTSQNMGCQISDNPCGNTH [K237E] | 0.47 |
| MAAAAAAAAEQQSSNGPVKKSMREKAVERRSVNKEHNSNFKAGYIPIDEDRLHKTGLRGRKGNLAICVIILLFILAVINLIITLVIWAVIRIGPNGCDSMEFHESGLLRFKQVSDMGVIHPLYKSTVGGRRNENLVITGNNQPIVFQQGTTKLSVENNKTSITSDIGMQFFDPRTQNILFSTDYETHEFHLPSGVKSLNVQKASTERITSNATSDLNIKVDGRAIVRGNEGVFIMGFTIEFHMGGNMELKAENSIILNGSVMVSTTRLPSSSSGDQLGSGDWVRYKLCMCADGTLFKVQVTSQNMGCQISDNPCGNTH [K237F] | 0.86 |
| MAAAAAAAAEQQSSNGPVKKSMREKAVERRSVNKEHNSNFKAGYIPIDEDRLHKTGLRGRKGNLAICVIILLFILAVINLIITLVIWAVIRIGPNGCDSMEFHESGLLRFKQVSDMGVIHPLYKSTVGGRRNENLVITGNNQPIVFQQGTTKLSVENNKTSITSDIGMQFFDPRTQNILFSTDYETHEFHLPSGVKSLNVQKASTERITSNATSDLNIKVDGRAIVRGNEGVFIMGHTIEFHMGGNMELKAENSIILNGSVMVSTTRLPSSSSGDQLGSGDWVRYKLCMCADGTLFKVQVTSQNMGCQISDNPCGNTH [K237H] | -0.04 |
| MAAAAAAAAEQQSSNGPVKKSMREKAVERRSVNKEHNSNFKAGYIPIDEDRLHKTGLRGRKGNLAICVIILLFILAVINLIITLVIWAVIRIGPNGCDSMEFHESGLLRFKQVSDMGVIHPLYKSTVGGRRNENLVITGNNQPIVFQQGTTKLSVENNKTSITSDIGMQFFDPRTQNILFSTDYETHEFHLPSGVKSLNVQKASTERITSNATSDLNIKVDGRAIVRGNEGVFIMGSTIEFHMGGNMELKAENSIILNGSVMVSTTRLPSSSSGDQLGSGDWVRYKLCMCADGTLFKVQVTSQNMGCQISDNPCGNTH [K237S] | 0.2 |
| MAAAAAAAAEQQSSNGPVKKSMREKAVERRSVNKEHNSNFKAGYIPIDEDRLHKTGLRGRKGNLAICVIILLFILAVINLIITLVIWAVIRIGPNGCDSMEFHESGLLRFKQVSDMGVIHPLYKSTVGGRRNENLVITGNNQPIVFQQGTTKLSVENNKTSITSDIGMQFFDPRTQNILFSTDYETHEFHLPSGVKSLNVQKASTERITSNATSDLNIKVDGRAIVRGNEGVFIMGRTIEFHMGGNMELKAENSIILNGSVMVSTTRLPSSSSGDQLGSGDWVRYKLCMCADGTLFKVQVTSQNMGCQISDNPCGNTH [K237R] | 0.73 |
| MAAAAAAAAEQQSSNGPVKKSMREKAVERRSVNKEHNSNFKAGYIPIDEDRLHKTGLRGRKGNLAICVIILLFILAVINLIITLVIWAVIRIGPNGCDSMEFHESGLLRFKQVSDMGVIHPLYKSTVGGRRNENLVITGNNQPIVFQQGTTKLSVENNKTSITSDIGMQFFDPRTQNILFSTDYETHEFHLPSGVKSLNVQKASTERITSNATSDLNIKVDGRAIVRGNEGVFIMGNTIEFHMGGNMELKAENSIILNGSVMVSTTRLPSSSSGDQLGSGDWVRYKLCMCADGTLFKVQVTSQNMGCQISDNPCGNTH [K237N] | 0.32 |
